Experimental data published in US20260242478A1 (published 2026).
Where no end group is shown, it is not given here.

Legend:
[1] = biological target: T1, Anti-CD28 Fab (SEQ ID NOs: 696, 697); experiment: phage binding ELISA on captured anti-CD28 Fab; competitor CD28 antigen
T1 construct: Biotinylated and captured on neutravidin coated plates in the phage ELISA

[2] = biological target: T1, Anti-CD28 Fab (SEQ ID NOs: 696, 697); experiment: phage binding ELISA; biotinylated anti-CD28 Fab on neutravidin plate, anti-M13 HRP detection
[3] = biological target: anti-CD28 Fab; experiment: competition ELISA, peptide titrated 0-100 uM against 1 nM anti-CD28 Fab, plate-bound CD28 as competitor
[4] = biological target: Ab-15; experiment: binding ELISA: biotinylated peptide on neutravidin plate, Ab-15 titrated
[5] = biological target: Ab-15; experiment: BLI (Octet): sensor loaded with 200 nM biotinylated peptide, 100 nM Ab-15;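 further: binding association and dissociation tracked in real time, fitted to a 1:1 binding model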
[6] = biological target: Ab-15; experiment: competition ELISA: peptide titrated against 1 nM Ab-15; competitor plate-bound CD28

B1: Phage-459 (peptide)
peptide: GCQYPWAFDAMSCP
modifications: cysteine pairing not given here; also: displayed as fusion to phage pIII, linker and pIII sequence not given here
notes: Clonal phage supernatant; also called Peptide-80; not shown: fused to the pIII filament protein of the bacteriophage
Anti-CD28 Fab signal in the presence of CD28 [1]: 0.07 | Anti-CD28 Fab (SEQ ID NOs: 696, 697) signal [2]: 2.38

B2: Phage-460 (peptide)
peptide: WCWDYKLWVPTQCP
modifications: cysteine pairing not given here; also: displayed as fusion to phage pIII, linker and pIII sequence not given here
notes: Clonal phage supernatant; also called Peptide-81; not shown: fused to the pIII filament protein of the bacteriophage
Anti-CD28 Fab signal in the presence of CD28 [1]: 0.14 | Anti-CD28 Fab (SEQ ID NOs: 696, 697) signal [2]: 2.27

B3: Phage-457 (peptide)
peptide: PDCQTILFKPWCVR
modifications: cysteine pairing not given here; also: displayed as fusion to phage pIII, linker and pIII sequence not given here
notes: Clonal phage supernatant; also called Peptide-78; not shown: fused to the pIII filament protein of the bacteriophage
Anti-CD28 Fab signal in the presence of CD28 [1]: 0.06 | Anti-CD28 Fab (SEQ ID NOs: 696, 697) signal [2]: 2.09

B4: Phage-458 (peptide)
peptide: ACDTYFAGMINECF
modifications: cysteine pairing not given here; also: displayed as fusion to phage pIII, linker and pIII sequence not given here
notes: Clonal phage supernatant; also called Peptide-79; not shown: fused to the pIII filament protein of the bacteriophage
Anti-CD28 Fab signal in the presence of CD28 [1]: 0.1 | Anti-CD28 Fab (SEQ ID NOs: 696, 697) signal [2]: 0.92

TCSAGATYEWPRCL [Peptide-149]
IC50 [3]: 2660 nM

B5: Phage-472 (peptide)
peptide: DCPWLSGFSRPLLC
notes: Clonal phage supernatant; also called Peptide-93; not shown: fused to the pIII filament protein of the bacteriophage
Anti-CD28 Fab signal in the presence of CD28 [1]: 0.07 | Anti-CD28 Fab (SEQ ID NOs: 696, 697) signal [2]: 1.27

TCSAGATYTWPKCF [Peptide-141]
IC50 [3]: 2220 nM

TCAAGAAWGWPLCF [Peptide-143]
IC50 [3]: 2560 nM

B6: Phage-471 (peptide)
peptide: SCAAGASYAWPYCL
notes: Clonal phage supernatant; also called Peptide-92; not shown: fused to the pIII filament protein of the bacteriophage
Anti-CD28 Fab signal in the presence of CD28 [1]: 0.05 | Anti-CD28 Fab (SEQ ID NOs: 696, 697) signal [2]: 1.49

TCAAGAAWPWPQCL [Peptide-140]
IC50 [3]: 760 nM

B7: Phage-461 (peptide)
peptide: WCWDYREWVPMTCP
modifications: cysteine pairing not given here; also: displayed as fusion to phage pIII, linker and pIII sequence not given here
notes: Clonal phage supernatant; also called Peptide-82; not shown: fused to the pIII filament protein of the bacteriophage
Anti-CD28 Fab signal in the presence of CD28 [1]: 0.08 | Anti-CD28 Fab (SEQ ID NOs: 696, 697) signal [2]: 2.3

B8: Phage-467 (peptide)
peptide: WCWYYREWVPMTCP
modifications: cysteine pairing not given here; also: displayed as fusion to phage pIII, linker and pIII sequence not given here
notes: Clonal phage supernatant; also called Peptide-88; not shown: fused to the pIII filament protein of the bacteriophage
Anti-CD28 Fab signal in the presence of CD28 [1]: 0.07 | Anti-CD28 Fab (SEQ ID NOs: 696, 697) signal [2]: 1.85

WDWCPRDLWVHCFA (cysteine pairing not given here; also: biotinylated, site not given here, CD28 peptide mask) [Peptide-67]
EC50 [4]: 21.7 nM | Octet signal [5]: 1.15 | t1/2 [5]: 4.1 min | IC50 [6]: 2800 nM

VDWCPRDLWVHCFA (cysteine pairing not given here; also: biotinylated, site not given here, CD28 peptide mask) [Peptide-69]
EC50 [4]: 32.5 nM | Octet signal [5]: 0.919 | t1/2 [5]: 2.9 min | IC50 [6]: 4420 nM

YDWCPRDLWVHCFA (cysteine pairing not given here; also: biotinylated, site not given here, CD28 peptide mask) [Peptide-68]
EC50 [4]: 32.2 nM | Octet signal [5]: 0.849 | t1/2 [5]: 2.9 min | IC50 [6]: 3250 nM

B9: Phage-466 (peptide)
peptide: YCAGHAWQYINKCL
modifications: cysteine pairing not given here; also: displayed as fusion to phage pIII, linker and pIII sequence not given here
notes: Clonal phage supernatant; also called Peptide-87; not shown: fused to the pIII filament protein of the bacteriophage
Anti-CD28 Fab signal in the presence of CD28 [1]: 0.07 | Anti-CD28 Fab (SEQ ID NOs: 696, 697) signal [2]: 0.64

B10: Phage-454 (peptide)
peptide: YWSCFQIPFTCFYF
notes: Clonal phage supernatant; also called Peptide-75; not shown: fused to the pIII filament protein of the bacteriophage
Anti-CD28 Fab signal in the presence of CD28 [1]: 0.27 | Anti-CD28 Fab (SEQ ID NOs: 696, 697) signal [2]: 1.44

LCAAGATYPWPLCL [Peptide-144]
IC50 [3]: 3040 nM

LCAAGATYPWPTCL [Peptide-147]
IC50 [3]: 8150 nM

B11: Phage-468 (peptide)
peptide: YWYCSPSIVRCVLV
notes: Clonal phage supernatant; also called Peptide-89; not shown: fused to the pIII filament protein of the bacteriophage
Anti-CD28 Fab signal in the presence of CD28 [1]: 0.09 | Anti-CD28 Fab (SEQ ID NOs: 696, 697) signal [2]: 1.51

TCAAGATWSWPACF [Peptide-142]
IC50 [3]: 620 nM

B12: Phage-462 (peptide)
peptide: ECHWSMWAVGHACF
modifications: cysteine pairing not given here; also: displayed as fusion to phage pIII, linker and pIII sequence not given here
notes: Clonal phage supernatant; also called Peptide-83; not shown: fused to the pIII filament protein of the bacteriophage
Anti-CD28 Fab signal in the presence of CD28 [1]: 0.07 | Anti-CD28 Fab (SEQ ID NOs: 696, 697) signal [2]: 1.77

B13: Phage-465 (peptide)
peptide: DCWWMFESYPGRCI
modifications: cysteine pairing not given here; also: displayed as fusion to phage pIII, linker and pIII sequence not given here
notes: Clonal phage supernatant; also called Peptide-86; not shown: fused to the pIII filament protein of the bacteriophage
Anti-CD28 Fab signal in the presence of CD28 [1]: 0.07 | Anti-CD28 Fab (SEQ ID NOs: 696, 697) signal [2]: 1.65

TCSAGATWAWPLCF [Peptide-152]
IC50 [3]: 2220 nM

B14: Phage-470 (peptide)
peptide: WICDKSGSIMLCRA
notes: Clonal phage supernatant; also called Peptide-91; not shown: fused to the pIII filament protein of the bacteriophage
Anti-CD28 Fab signal in the presence of CD28 [1]: 0.06 | Anti-CD28 Fab (SEQ ID NOs: 696, 697) signal [2]: 0.91

TCAAGATYLWPTCL [Peptide-153]
IC50 [3]: 8420 nM

TCSAGASYPWPLCL [Peptide-139]
IC50 [3]: 2190 nM

TCSAGAAYPWPLCL [Peptide-145]
IC50 [3]: 7700 nM

TCAAGAHYPWPACL [Peptide-154]
IC50 [3]: 2200 nM

TCSAGAAYSWPACF [Peptide-146]
IC50 [3]: 16100 nM

TCSAGATWPWPICL [Peptide-137]
IC50 [3]: 890 nM

TCSAGAHYPWPICL [Peptide-150]
IC50 [3]: 4760 nM

LCAAGASWPWPVCL [Peptide-138]
IC50 [3]: 3610 nM

SCSAGAHYPWPQCF [Peptide-148]
IC50 [3]: 5670 nM

B15: Phage-455 (peptide)
peptide: WECLKYTEANACTY
notes: Clonal phage supernatant; also called Peptide-76; not shown: fused to the pIII filament protein of the bacteriophage
Anti-CD28 Fab signal in the presence of CD28 [1]: 0.07 | Anti-CD28 Fab (SEQ ID NOs: 696, 697) signal [2]: 1.55

B16: Phage-456 (peptide)
peptide: FMCLPQNPHPLCFK
notes: Clonal phage supernatant; also called Peptide-77; not shown: fused to the pIII filament protein of the bacteriophage
Anti-CD28 Fab signal in the presence of CD28 [1]: 0.06 | Anti-CD28 Fab (SEQ ID NOs: 696, 697) signal [2]: 0.84

SCSAGAAYYWPWCL [Peptide-151]
IC50 [3]: 80500 nM

B17: Phage-464 (peptide)
peptide: WCWDYKLWVPMTCP
modifications: cysteine pairing not given here; also: displayed as fusion to phage pIII, linker and pIII sequence not given here
notes: Clonal phage supernatant; also called Peptide-85; not shown: fused to the pIII filament protein of the bacteriophage
Anti-CD28 Fab signal in the presence of CD28 [1]: 0.11 | Anti-CD28 Fab (SEQ ID NOs: 696, 697) signal [2]: 2.51

B18: Phage-463 (peptide)
peptide: YCAGHSPINIGKCL
modifications: cysteine pairing not given here; also: displayed as fusion to phage pIII, linker and pIII sequence not given here
notes: Clonal phage supernatant; also called Peptide-84; not shown: fused to the pIII filament protein of the bacteriophage
Anti-CD28 Fab signal in the presence of CD28 [1]: 0.06 | Anti-CD28 Fab (SEQ ID NOs: 696, 697) signal [2]: 1.49
